Patent US20230242902A1, “A HIGHLY ERROR-PRONE […] R[…] FOR TARGETED CONTINUOUS EVOLUTION IN VIVO” (The Regents of the University of California, priority 2017, published 2023)
Where a chain is given by its changes, count along the chain named. Names may count otherwise.

B1: R692F, T706E: TP-DNAP1 variant (protein)
chain: MDYKDKALNDLRNVYADFDSLPLDFRQILIKDRATLLQKEDVEKKILERQEDAKKYAEYLKQSEIPERISLPNIKRHKGVSISFEETSEDMVLEPRPFIFDGLNIRCFRRETIFSLKNKILNMVKESSSFKNVSRQSVSFMYFKIFNKGKVIASTKSVNIYEDKIDERLEDLCNNFDDVLKKIIDVTYGYESLFVSETYSYVIFYAKSIYFPQPRCVNNWGNNIPNILTFDSFKLFTANKNNVSCIKQCSRFLWQKDFNTLEEMIEYKNGNICIVTPQLHINDVRDIKSFNDIRLYSESPIKTFSVIDNTITYLFYFKEHLGVIFNITKSRHDRRVTKFSPLSKFSDVKNITVCFDIESYFDPEKESNQVNIPFICCASIIYNKVIGNIVDFEGRDCVAQMIEYVVDICGELNISSVELIAHNGGGYDFHYILSSMYNPAAIKNILIRNNSFISFNFAHDGVKFSVKDSYSFLLCSLANASKAFLNEETFKKTDFPHHDLKTADDLYKVYKEWSSVNTEINHVVEKEKLLITSEHIVNFTKNDKSKTLIEWSKDYCRNDVLVLSKVWLEFKNAVEDIFNCELVDQTMTLAGLSYKLFQANMPFDVELRHPNKEDYFNMREALIGGRCISVNGIYKDVLCLDVKSLYPASMAFYDQPYGSFKRVSSRPKDELGIYYVRVTPNRNNKSNFFPIFSHNKITYNNFEESEYIAWYTNVDIDIGLSEGHNIEYIPFDSYGNIGYSWSKKGKIFEKYIKDVLYKLKIKYEKQNNKVKRNVIKIIMNSLWGKFAQKWVNFEYFIKSEDDIDFESEEAYKIWDTDFMLIKKIKESTYSSKPIQNGVFTLSWARYHMKSIWDAGAKEGAECIYSDTDSIFVHKEHFKKNAKFMLNGLKVPIIGSEVGQLELECEFDKLLCAGKKQYMGFYTYFQDGKPCIKEKKRFKGIPSNYIIPELYAHLLSGADKEAKIQFLKFRREWGSVKGYIENKTVKAT
B2: E298R: TP-DNAP1 variant (protein)
chain: B1 chain with E298R, F692R, E706T
B3: R692W: TP-DNAP1 variant (protein)
chain: B1 chain with F692W, E706T
B4: R692V: TP-DNAP1 variant (protein)
chain: B1 chain with F692V, E706T
B5: S693R: TP-DNAP1 variant (protein)
chain: B1 chain with F692R, S693R, E706T
B6: S693Q: TP-DNAP1 variant (protein)
chain: B1 chain with F692R, S693Q, E706T
B7: H694I: TP-DNAP1 variant (protein)
chain: B1 chain with F692R, H694I, E706T
B8: H694T: TP-DNAP1 variant (protein)
chain: B1 chain with F692R, H694T, E706T
B9: N695E: TP-DNAP1 variant (protein)
chain: B1 chain with F692R, N695E, E706T
B10: N695Q: TP-DNAP1 variant (protein)
chain: B1 chain with F692R, N695Q, E706T
B11: N695H: TP-DNAP1 variant (protein)
chain: B1 chain with F692R, N695H, E706T
B12: N695F: TP-DNAP1 variant (protein)
chain: B1 chain with F692R, N695F, E706T
B13: E298G: TP-DNAP1 variant (protein)
chain: B1 chain with E298G, F692R, E706T
B14: N695S: TP-DNAP1 variant (protein)
chain: B1 chain with F692R, N695S, E706T
B15: K696C: TP-DNAP1 variant (protein)
chain: B1 chain with F692R, K696C, E706T
B16: K696G: TP-DNAP1 variant (protein)
chain: B1 chain with F692R, K696G, E706T
B17: K696M: TP-DNAP1 variant (protein)
chain: B1 chain with F692R, K696M, E706T
B18: K696S, E704V: TP-DNAP1 variant (protein)
chain: B1 chain with F692R, K696S, E704V, E706T
B19: K696T: TP-DNAP1 variant (protein)
chain: B1 chain with F692R, K696T, E706T
B20: K696Y: TP-DNAP1 variant (protein)
chain: B1 chain with F692R, K696Y, E706T
B21: T698A: TP-DNAP1 variant (protein)
chain: B1 chain with F692R, T698A, E706T
B22: T698L: TP-DNAP1 variant (protein)
chain: B1 chain with F692R, T698L, E706T
B23: T698M: TP-DNAP1 variant (protein)
chain: B1 chain with F692R, T698M, E706T
B24: E298G, S305F: TP-DNAP1 variant (protein)
chain: B1 chain with E298G, S305F, F692R, E706T
B25: E703R: TP-DNAP1 variant (protein)
chain: B1 chain with F692R, E703R, E706T
B26: E703H: TP-DNAP1 variant (protein)
chain: B1 chain with F692R, E703H, E706T
B27: E703W: TP-DNAP1 variant (protein)
chain: B1 chain with F692R, E703W, E706T

System: p1
Assay: p1 copy number by p1-encoded mKate2 fluorescence
Assay type: cell-based, S. cerevisiae
Conditions: OR-Y24, measured in triplicate
In short: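 Yeast OR-Y24 strains carrying TP-DNAP1 variants were grown to saturation from a 1:10,000 dilution, and p1-encoded mKate2 fluorescence was measured by flow cytometry (ex/em 561/620 nm). Values were converted to copy number via a linear calibration against qPCR of p1-encoded LEU2 versus genomic LEU3, or by plate-reader OD600-normalized fluorescence relative to w.t. TP-DNAP1.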

| Molecule | Mean fold-increase over w.t. (p1 copy number) [fold] |
| --- | --- |
| B1 | 1.89 |
| B2 | 2.6 |
| B3 | 1.97 |
| B4 | 2.29 |
| B5 | 2.09 |
| B6 | 2.22 |
| B7 | 1.78 |
| B8 | 1.92 |
| B9 | 2.34 |
| B10 | 1.68 |
| B11 | 1.76 |
| B12 | 1.44 |
| B13 | 2.64 |
| B14 | 1.82 |
| B15 | 1.87 |
| B16 | 2.11 |
| B17 | 1.71 |
| B18 | 1.86 |
| B19 | 2.12 |
| B20 | 1.49 |
| B21 | 2.02 |
| B22 | 2 |
| B23 | 1.75 |
| B24 | 2.06 |
| B25 | 1.84 |
| B26 | 1.53 |
| B27 | 1.72 |
